Experimental findings from US20240317847A1 (Bayer, published 2024) are described below.

Test [1] deals with T1, human IL-11 (human, UniProt P20809 22-199).
T1 construct: Invigate, e.g. lot #C121021-19; biotinylated where coated in the ELISA; also called hIL-11; hIL11
T1 sequence: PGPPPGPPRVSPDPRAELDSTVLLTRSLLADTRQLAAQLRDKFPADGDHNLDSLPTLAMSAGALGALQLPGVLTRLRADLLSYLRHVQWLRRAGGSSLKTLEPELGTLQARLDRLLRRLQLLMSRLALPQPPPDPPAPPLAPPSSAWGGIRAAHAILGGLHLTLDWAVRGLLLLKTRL
Put plainly: Di-complex ELISA, competitor canine IL11RA-Fc on coated IL-11.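 For Efficacy (%): signal drop relative to signal at lowest antibody concentration.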 The method, then: (§1) The assay is performed using streptavidin coated microtiter plates (Greiner bio-one, #781997). In a first step, 10 nM biotinylated mouse IL-11 (Invigate, Germany, e.g., lot #C210819-09) or human IL-11 (Invigate, Germany, e.g., lot #C121021-19) is coated in 25 μl PBS on the plate at 4° C. overnight. Next day, the plate is washed three times with 50 μl PBST and then blocked with 50 μl SmartBlock (Candor, #113125) for one hour at room temperature (RT). After additional three washes with PBST, 25 μl of a mixture of the murine anti IL-11 antibody and recombinant canine IL11RA-Fc fusion protein (Sino Biological, #70078-D02H) in PBS-T, 10% Smartblock are added simultaneously to the plate and incubated for one hour at RT. […] After three additional washes with PBS-T, 25 μl anti-human-POD (Sigma, #A0170) in PBS-T, 10% Smartblock is added and incubated for 1 hour at RT. After a final three washes with PBS-T, 25 μl AmplexRed (Fisher Scientific, A12222), 1/1000 in PBS, 0,003% H₂O₂, is added as substrate and incubated for 15 min at RT in the dark. Then, the fluorescence is measured with a plate reader at 535/595 nm. Signals from dose responses were used to calculate IC50 values (GraphPad Prism). Efficacy was calculated as [(signal measured at lowest antibody concentration−signal measured at the highest antibody concentration)×100] divided by (signal measured at lowest antibody concentration−signal measured in the absence of IL11Ra).
(§2) IgG converted antibodies were subjected to the experimental assay procedure described in Example 18.
(In general: ELISA stands for enzyme-linked immunosorbent assay.)

The target of test [2] is T2, murine IL-11 (mouse, UniProt P47873 22-199).
T2 construct: Invigate, e.g. lot #C210819-09; biotinylated where coated in the ELISA; also called mIL-11; mIL11
T2 sequence: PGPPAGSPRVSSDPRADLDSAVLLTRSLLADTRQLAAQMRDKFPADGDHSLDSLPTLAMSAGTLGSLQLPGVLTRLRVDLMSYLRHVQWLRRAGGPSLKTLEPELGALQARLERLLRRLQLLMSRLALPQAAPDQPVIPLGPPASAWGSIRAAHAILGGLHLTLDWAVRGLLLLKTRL
The description is as above. The method, then: as §1, §2

For test [3], the target named is T1, human IL-11. Put plainly: cell-based or functional assay.
The target in test [4] is T2, murine IL-11. Put plainly: cell-based or functional assay.
The target in test [5] is T3, cynomolgus IL-11 (cynomolgus, UniProt P20808 22-199).
T3 sequence: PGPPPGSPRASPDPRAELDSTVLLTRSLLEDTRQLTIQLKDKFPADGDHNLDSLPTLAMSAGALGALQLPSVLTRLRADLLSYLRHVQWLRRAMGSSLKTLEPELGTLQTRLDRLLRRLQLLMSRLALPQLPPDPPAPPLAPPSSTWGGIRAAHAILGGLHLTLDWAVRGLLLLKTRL
Put plainly: cell-based or functional assay.

Test [6] concerns the target T4, rat IL-11 (rat, UniProt Q99MF5 22-199).
T4 sequence: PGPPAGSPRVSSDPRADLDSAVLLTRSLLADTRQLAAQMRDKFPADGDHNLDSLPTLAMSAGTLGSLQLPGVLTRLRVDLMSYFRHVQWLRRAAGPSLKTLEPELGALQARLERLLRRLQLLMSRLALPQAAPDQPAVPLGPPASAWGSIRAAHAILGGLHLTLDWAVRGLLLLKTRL
Put plainly: cell-based or functional assay.

Test [7] concerns the target T1, human IL-11. Put plainly: SPR 37 C, antibody captured, IL-11 as analyte. The protocol: (§3) To assess the binding kinetics and affinity of anti-IL-11 antibodies as well as their species cross-reactivity profile, binding assays were conducted using surface plasmon resonance (SPR). Binding assays were performed on a Biacore T200 instrument or on a Biacore 8K+ instrument (Cytiva) at 37° C. using assay buffer HBS EP+, 300 mM NaCl, 1 mg/ml BSA, 0.05% NaN3. Antibodies were captured either via anti-human Fc IgGs (“Human antibody capture kit”, Order No. BR100839, Cytiva) or via anti-mouse Fc IgGs (“Mouse antibody capture kit, Order No. BR100383, Cytiva) covalently amine coupled to a Series S CM5 sensor chip (Cytiva) depending on the isotype. The amine coupling was carried out according to the manufacturer's instructions using 1-ethyl-3-(3-dimethylaminopropyl) carbodiimide hydrochloride (EDC), N-hydroxysuccinimide (NHS) and ethanolamine HCl, pH 8.5 (“Amine Coupling Kit” BR-1000-50, Cytiva.). Human, mouse, cynomolgus or rat IL-11 was used as analyte at several dilutions within the concentration range from 0.05-200 nM. For binding assays with only one concentration 200 nM IL-11 was used. The sensor surface was regenerated with glycine pH 1.7 after each antigen injection. Obtained sensorgrams were double referenced (subtraction of reference flow cell signal and buffer injection) and were fitted to a 1:1 Langmuir binding model to derive kinetic data using the Biacore T200 Evaluation software or the Biacore Insight software. If no value is reported, there was either no binding or very low binding and multiphasic binding behavior. Values below 1E-12 were considered to be below the dynamic range of the instrument and set to <1E-12.

Test [8] deals with T2, murine IL-11. Put plainly: SPR 37 C, antibody captured, IL-11 as analyte. The method, then: as §3
Test [9] has as its target T3, cynomolgus IL-11. Put plainly: SPR 37 C, antibody captured, IL-11 as analyte. The protocol:
as §3

For test [10], the target named is T4, rat IL-11. Put plainly: SPR 37 C, antibody captured, IL-11 as analyte. The protocol:
as §3

B1: TPP-29528 (antibody, mouse IgG1)
heavy: EVQLLESGGGLVQPGGSLRLSCAASGFTFSSYGMHWVRQAPGKGLEWVAVISYDGSYKYYADSVKGRFTISRDNSKNTLYLQMNSLRAEDTAVYYCAAGVPDYWGQGTLVTVSSAKTTPPSVYPLAPGSAAQTNSMVTLGCLVKGYFPEPVTVTWNSGSLSSGVHTFPAVLQSDLYTLSSSVTVPSSTWPSETVTCNVAHPASSTKVDKKIVPRDCGCKPCICTVPEVSSVFIFPPKPKDVLTITLTPKVTCVVVDISKDDPEVQFSWFVDDVEVHTAQTQPREEQFNSTFRSVSELPIMHQDWLNGKEFKCRVNSAAFPAPIEKTISKTKGRPKAPQVYTIPPPKEQMAKDKVSLTCMITDFFPEDITVEWQWNGQPAENYKNTQPIMDTDGSYFVYSKLNVQKSNWEAGNTFTCSVLHEGLHNHHTEKSLSHSPGK
light: QSVLTQPPSASGTPGQRVTISCSGSSSNIGSDYDVHWYQQLPGTAPKLLIYSNEERPSGVPDRFSGSKSGTSASLAISGLRSEDEADYYCSAWDSSLSGPVFGGGTKLTVLGQPKSSPSVTLFPPSSEELETNKATLVCTITDFYPGVVTVDWKVDGTPVTQGMETTQPSKQSNNKYMASSYLTLTARAWERHSSYSCQVTHEGHTVEKSLSRADCS
notes: mIgG1, Lambda
As a reminder, the IC50 is the point on the concentration scale where inhibition reaches its midpoint. Read a low IC50 as greater potency in that assay. The term Kd denotes a measure of binding affinity in units of concentration. For B1, the “Efficacy (%)” value in [1] is 36.3%; in [2] it was 43.4%. For the same molecule, the IC50 in test [2] came out at 2.6 nM. Moreover, the “RGA Efficacy (%)” value in test [3] was found to be 81.2%; in test [4], 96.9%; in [5], 87.8%; in test [6] it was 89.9%. For the same molecule, the “RGA IC50” value in test [4] came out at 0.89 nM; in [5], 0.44 nM; in test [6] it was 1.8 nM. The Kd in [7] was 0.34 nM; in [8], 0.23 nM; in [9], 0.2 nM; in test [10], 0.33 nM.

B2: TPP-29523 (antibody, mouse IgG1)
heavy: QVQLVESGGGVVQPGRSLRLSCAASGFTFSHYDMHWVRQAPGKGLEWVAVISYEGSVKFYADSVKGRFTISRDNSKNTLYLQMNSLRAEDTAVYYCARTPGFHFDYWGQGTLVTVSSAKTTPPSVYPLAPGSAAQTNSMVTLGCLVKGYFPEPVTVTWNSGSLSSGVHTFPAVLQSDLYTLSSSVTVPSSTWPSETVTCNVAHPASSTKVDKKIVPRDCGCKPCICTVPEVSSVFIFPPKPKDVLTITLTPKVTCVVVDISKDDPEVQFSWFVDDVEVHTAQTQPREEQFNSTFRSVSELPIMHQDWLNGKEFKCRVNSAAFPAPIEKTISKTKGRPKAPQVYTIPPPKEQMAKDKVSLTCMITDFFPEDITVEWQWNGQPAENYKNTQPIMDTDGSYFVYSKLNVQKSNWEAGNTFTCSVLHEGLHNHHTEKSLSHSPGK
light: QSVLTQPPSASGTPGQRVTISCSGSSSNIGSNYVNWYQQLPGTAPKLLIYYDDLRPSGVPDRFSGSKSGTSASLAISGLRSEDEADYYCSAWDDSLSGVVFGGGTKLTVLGQPKSSPSVTLFPPSSEELETNKATLVCTITDFYPGVVTVDWKVDGTPVTQGMETTQPSKQSNNKYMASSYLTLTARAWERHSSYSCQVTHEGHTVEKSLSRADCS
notes: mIgG1, Lambda
In the case of B2, the “Efficacy (%)” value in [1] is 2%; in test [2], 4.8%. Moreover, the “RGA Efficacy (%)” value in [3] is 100%; in [4], 101%; in [5], 97.2%; in [6], 101%. Moreover, the “RGA IC50” value in [3] is 1.6 nM; in test [4], 1.4 nM; in [5], 0.68 nM; in test [6] it was 1.4 nM. The Kd in [7] stood at 0.0026 nM; in [8] it was 0.004 nM; in test [9], 1.1 nM; in test [10] it was 0.02 nM.

B3: TPP-29519 (antibody, mouse IgG1)
heavy: QVQLVESGGGVVQPGRSLRLSCAASGFTFSHYDMHWVRQAPGKGLEWVAVISYHGSVKFYADSVKGRFTISRDNSKNTLYLQMNSLRAEDTAVYYCARTPGFHFDYWGQGTLVTVSSAKTTPPSVYPLAPGSAAQTNSMVTLGCLVKGYFPEPVTVTWNSGSLSSGVHTFPAVLQSDLYTLSSSVTVPSSTWPSETVTCNVAHPASSTKVDKKIVPRDCGCKPCICTVPEVSSVFIFPPKPKDVLTITLTPKVTCVVVDISKDDPEVQFSWFVDDVEVHTAQTQPREEQFNSTFRSVSELPIMHQDWLNGKEFKCRVNSAAFPAPIEKTISKTKGRPKAPQVYTIPPPKEQMAKDKVSLTCMITDFFPEDITVEWQWNGQPAENYKNTQPIMDTDGSYFVYSKLNVQKSNWEAGNTFTCSVLHEGLHNHHTEKSLSHSPGK
light: QSVLTQPPSASGTPGQRVTISCSGSSSNIGSNYVSWYQQLPGTAPKLLIYYDDLRPSGVPDRFSGSKSGTSASLAISGLRSEDEADYYCSAWDDSLSGVVFGGGTKLTVLGQPKSSPSVTLFPPSSEELETNKATLVCTITDFYPGVVTVDWKVDGTPVTQGMETTQPSKQSNNKYMASSYLTLTARAWERHSSYSCQVTHEGHTVEKSLSRADCS
notes: mIgG1, Lambda
On to B3, for which the “Efficacy (%)” value was found to be 6.8% in test [1] and 12.8% in test [2]. Also, the “RGA Efficacy (%)” value was 100% in [3], 101% in [4], 99.2% in test [5] and 99.7% in test [6]. The “RGA IC50” value in [3] came to 1.8 nM; in test [4], 1.2 nM; in test [5], 0.89 nM; in [6], 1 nM. For the same molecule, the Kd is 0.01 nM in test [7], 0.0035 nM in [8], 0.61 nM in [9] and 0.023 nM in test [10].
